Measurements: patent US20190330374A1 (IGM BIOSCIENCES, published 2019)

T1: OX40 on activated T cells (PBMCs activated with Human T cell Activator Dynabeads) (human, UniProt P43489 29-277)
T1 construct: Native OX40 on donor PBMC T cells; also called OX40 on CD8+ T cells (low levels); OX40 on CD4+ T cells (high levels)
T1 sequence: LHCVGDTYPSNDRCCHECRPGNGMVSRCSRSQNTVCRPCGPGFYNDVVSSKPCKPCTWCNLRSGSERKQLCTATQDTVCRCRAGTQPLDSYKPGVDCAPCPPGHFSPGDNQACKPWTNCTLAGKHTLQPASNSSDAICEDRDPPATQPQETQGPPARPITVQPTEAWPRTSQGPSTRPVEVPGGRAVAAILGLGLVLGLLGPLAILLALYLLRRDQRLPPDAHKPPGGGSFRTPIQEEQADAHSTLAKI


Legend:
[1] = biological target: OX40 in the PathHunter U2OS OX40 Signaling Assay (DiscoverX) cells; assay: cell-based or functional assay
[2] = biological target: T1, OX40 on activated T cells (PBMCs …); assay: flow cytometry on activated PBMC T cells
Experimental: Ab binding was tested on PBMCs activated for 3 days with Human T cell Activator Dynabeads (Thermo-Fisher) to induce low levels of OX40 on CD8+ T cells (FIG. 3A, 3C) or high levels of OX40 on CD4+ T cells (FIG. 3B, 3D). […] For the PBMCs, anti-CD3-A647 (Biolegend) and CD4-PerCP-CY5.5 (Biolegend) were also included to gate on CD4+CD3+ CD4 T cells and CD4-CD3+ CD8 T cells. FACS data was acquired on a FACSCalibur (BD), analyzed in FlowJo (TreeStar), and plotted in GraphPad Prism. […] Kd was calculated for each antibody in GraphPad Prism software using One Site-Specific binding with Hill slope.

fold increase in NF-kB activation (RLU at the highest antibody concentration) compared to uncross-linked Anti-OX40 #1-IgG [1] [fold] | fold increase in signaling activation (RLU at the highest antibody concentration) compared to cross-linked Anti-OX40 #1-IgG [1] [fold] | binding result [2] | Binder
23 | 13 |  | Anti-OX40 #1-IgM (antibody, V domains shown) VH: QVQLQESGPGLVKPSQTLSLTCAVYGGSFSSGYWNWIRKHPGKGLEYIGYISYNGITYHNPSLKSRITINRDTSKNQYSLQLNSVTPEDTAVYYCARYKYDYDGGHAMDYWGQGTLVTVSS VL: DIQMTQSPSSLSASVGDRVTITCRASQDISNYLNWYQQKPGKAPKLLIYYTSKLHSGVPSRFSGSGSGTDYTLTISSLQPEDFATYYCQQGSALPWTFGQGTKVEIK
 |  | binds | Anti-OX40 #1-IgG (antibody, V domains shown, VH and VL put into an IgG format by standard cloning; It was detected with anti-human kappa light chain, so the light chain is kappa; also called anti-OX40 IgG #1) VH: QVQLQESGPGLVKPSQTLSLTCAVYGGSFSSGYWNWIRKHPGKGLEYIGYISYNGITYHNPSLKSRITINRDTSKNQYSLQLNSVTPEDTAVYYCARYKYDYDGGHAMDYWGQGTLVTVSS VL: DIQMTQSPSSLSASVGDRVTITCRASQDISNYLNWYQQKPGKAPKLLIYYTSKLHSGVPSRFSGSGSGTDYTLTISSLQPEDFATYYCQQGSALPWTFGQGTKVEIK
